Measured values published in US20240117018A1.

How the values were obtained:
Experiment in all cases: cell-based or functional assay
[1] = molecular target: HIV-1 Env of pseudovirus 0260.v5.c36 (HIV-1)
[2] = molecular target: HIV-1 Env of pseudovirus 1006_11_C3_1601 (HIV-1)
[3] = molecular target: HIV-1 Env of pseudovirus 1054_07_TC4_1499 (HIV-1)
[4] = molecular target: HIV-1 Env of pseudovirus 246F C1G (HIV-1)
[5] = molecular target: HIV-1 Env of pseudovirus 3365.v2.c2 (HIV-1)
[6] = molecular target: HIV-1 Env of pseudovirus 3415.v1.c1 (HIV-1)
[7] = molecular target: HIV-1 Env of pseudovirus 62357_14_D3_4589 (HIV-1)
[8] = molecular target: HIV-1 Env of pseudovirus 6240_08_TA5_4622 (HIV-1)
[9] = molecular target: HIV-1 Env of pseudovirus BF1266.431a (HIV-1)
[10] = molecular target: HIV-1 Env of pseudovirus C2101.c01 (HIV-1)
[11] = molecular target: HIV-1 Env of pseudovirus CAAN5342.A2 (HIV-1)
[12] = molecular target: HIV-1 Env of pseudovirus CNE17 (HIV-1)
[13] = molecular target: HIV-1 Env of pseudovirus CNE20 (HIV-1)
[14] = molecular target: HIV-1 Env of pseudovirus CNE21 (HIV-1)
[15] = molecular target: HIV-1 Env of pseudovirus CNE30 (HIV-1)
[16] = molecular target: HIV-1 Env of pseudovirus Ce0393_C3 (HIV-1)
[17] = molecular target: HIV-1 Env of pseudovirus Ce1176_A3 (HIV-1)
[18] = molecular target: HIV-1 Env of pseudovirus Ce2010_F5 (HIV-1)
[19] = molecular target: HIV-1 Env of pseudovirus Ce704809221_1B3 (HIV-1)
[20] = molecular target: HIV-1 Env of pseudovirus Du156.12 (HIV-1)
[21] = molecular target: HIV-1 Env of pseudovirus Du172.17 (HIV-1)
[22] = molecular target: HIV-1 Env of pseudovirus Du422.1 (HIV-1)
[23] = molecular target: HIV-1 Env of pseudovirus HIV-0013095-2.11 (HIV-1)
[24] = molecular target: HIV-1 Env of pseudovirus HIV-16055-2.3 (HIV-1)
[25] = molecular target: HIV-1 Env of pseudovirus HIV-16845-2.22 (HIV-1)
[26] = molecular target: HIV-1 Env of pseudovirus MS208.A1 (HIV-1)
[27] = molecular target: HIV-1 Env of pseudovirus PVO.4 (HIV-1)
[28] = molecular target: HIV-1 Env of pseudovirus Q259.d2.17 (HIV-1)
[29] = molecular target: HIV-1 Env of pseudovirus Q769.d22 (HIV-1)
[30] = molecular target: HIV-1 Env of pseudovirus QH0692.42 (HIV-1)
[31] = molecular target: HIV-1 Env of pseudovirus REJO4541.67 (HIV-1)
[32] = molecular target: HIV-1 Env of pseudovirus SC05_8C11_2344 (HIV-1)
[33] = molecular target: HIV-1 Env of pseudovirus TRO.11 (HIV-1)
[34] = molecular target: HIV-1 Env of pseudovirus ZM109F.PB4 (HIV-1)
[35] = molecular target: HIV-1 Env of pseudovirus ZM135M.PL10a (HIV-1)
[36] = molecular target: HIV-1 Env of pseudovirus ZM197M.PB7 (HIV-1)
[37] = molecular target: HIV-1 Env of pseudovirus ZM249M.PL1 (HIV-1)

Substance: N49P7 (antibody)
- IC50 [1]: 0.354 µg/mL
- IC80 [1]: 0.884 µg/mL
- MPI [1]: 100
- IC50 [2]: 0.044 µg/mL
- IC80 [2]: 0.158 µg/mL
- MPI [2]: 100
- IC50 [3]: 0.494 µg/mL
- IC80 [3]: 2.31 µg/mL
- MPI [3]: 100
- IC50 [4]: 0.094 µg/mL
- IC80 [4]: 0.255 µg/mL
- MPI [4]: 100
- IC50 [5]: 0.07 µg/mL
- IC80 [5]: 0.186 µg/mL
- MPI [5]: 100
- IC50 [6]: 0.16 µg/mL
- IC80 [6]: 0.55 µg/mL
- MPI [6]: 100
- IC50 [7]: 0.025 µg/mL
- IC80 [7]: 0.102 µg/mL
- MPI [7]: 100
- IC50 [8]: 0.457 µg/mL
- IC80 [8]: 1.73 µg/mL
- MPI [8]: 100
- IC50 [9]: 0.057 µg/mL
- IC80 [9]: 0.199 µg/mL
- MPI [9]: 100
- IC50 [10]: 0.06 µg/mL
- IC80 [10]: 0.34 µg/mL
- MPI [10]: 100
- IC50 [11]: 0.409 µg/mL
- IC80 [11]: 1.21 µg/mL
- MPI [11]: 100
- IC50 [12]: 0.126 µg/mL
- IC80 [12]: 0.46 µg/mL
- MPI [12]: 100
- IC50 [13]: 0.028 µg/mL
- IC80 [13]: 0.1 µg/mL
- MPI [13]: 100
- IC50 [14]: 0.756 µg/mL
- IC80 [14]: 6.02 µg/mL
- MPI [14]: 97
- IC50 [15]: 0.18 µg/mL
- IC80 [15]: 0.609 µg/mL
- MPI [15]: 100
- IC50 [16]: 0.195 µg/mL
- IC80 [16]: 0.802 µg/mL
- MPI [16]: 100
- IC50 [17]: 0.204 µg/mL
- IC80 [17]: 0.589 µg/mL
- MPI [17]: 100
- IC50 [18]: 0.13 µg/mL
- IC80 [18]: 0.547 µg/mL
- MPI [18]: 100
- IC50 [19]: 0.141 µg/mL
- IC80 [19]: 0.932 µg/mL
- MPI [19]: 100
- IC50 [20]: 0.032 µg/mL
- IC80 [20]: 0.086 µg/mL
- MPI [20]: 100
- IC50 [21]: 0.102 µg/mL
- IC80 [21]: 0.668 µg/mL
- MPI [21]: 100
- IC50 [22]: 4.5 µg/mL
- IC80 [22]: 19.5 µg/mL
- MPI [22]: 93
- IC50 [23]: 0.073 µg/mL
- IC80 [23]: 0.253 µg/mL
- MPI [23]: 100
- IC50 [24]: 0.057 µg/mL
- IC80 [24]: 0.28 µg/mL
- MPI [24]: 100
- IC50 [25]: 0.95 µg/mL
- IC80 [25]: 3.94 µg/mL
- MPI [25]: 100
- IC50 [26]: 0.12 µg/mL
- IC80 [26]: 0.479 µg/mL
- MPI [26]: 100
- IC50 [27]: 0.107 µg/mL
- IC80 [27]: 0.365 µg/mL
- MPI [27]: 100
- IC50 [28]: 0.332 µg/mL
- IC80 [28]: 2.47 µg/mL
- MPI [28]: 98
- IC50 [29]: 0.025 µg/mL
- IC80 [29]: 0.111 µg/mL
- MPI [29]: 100
- IC50 [30]: 0.663 µg/mL
- IC80 [30]: 2.41 µg/mL
- MPI [30]: 100
- IC50 [31]: 0.015 µg/mL
- IC80 [31]: 0.049 µg/mL
- MPI [31]: 100
- IC50 [32]: 0.164 µg/mL
- IC80 [32]: 0.403 µg/mL
- MPI [32]: 100
- IC50 [33]: 0.044 µg/mL
- IC80 [33]: 0.16 µg/mL
- MPI [33]: 100
- IC50 [34]: 0.034 µg/mL
- IC80 [34]: 0.153 µg/mL
- MPI [34]: 100
- IC50 [35]: 0.2 µg/mL
- IC80 [35]: 0.96 µg/mL
- MPI [35]: 100
- IC50 [36]: 0.109 µg/mL
- IC80 [36]: 0.347 µg/mL
- MPI [36]: 100
- IC50 [37]: 0.039 µg/mL
- IC80 [37]: 0.134 µg/mL
- MPI [37]: 100

Substance: N49P7.1 (antibody)
- IC50 [1]: 0.497 µg/mL
- IC80 [1]: 1.51 µg/mL
- MPI [1]: 100
- IC50 [2]: 0.061 µg/mL
- IC80 [2]: 0.193 µg/mL
- MPI [2]: 100
- IC50 [3]: 0.627 µg/mL
- IC80 [3]: 2.98 µg/mL
- MPI [3]: 100
- IC50 [4]: 0.049 µg/mL
- IC80 [4]: 0.165 µg/mL
- MPI [4]: 100
- IC50 [5]: 0.088 µg/mL
- IC80 [5]: 0.289 µg/mL
- MPI [5]: 100
- IC50 [6]: 0.191 µg/mL
- IC80 [6]: 0.647 µg/mL
- MPI [6]: 100
- IC50 [7]: 0.028 µg/mL
- IC80 [7]: 0.15 µg/mL
- MPI [7]: 100
- IC50 [8]: 0.509 µg/mL
- IC80 [8]: 1.95 µg/mL
- MPI [8]: 100
- IC50 [9]: 0.033 µg/mL
- IC80 [9]: 0.11 µg/mL
- MPI [9]: 100
- IC50 [10]: 0.076 µg/mL
- IC80 [10]: 0.425 µg/mL
- MPI [10]: 100
- IC50 [11]: 0.55 µg/mL
- IC80 [11]: 1.59 µg/mL
- MPI [11]: 100
- IC50 [12]: 0.254 µg/mL
- IC80 [12]: 0.86 µg/mL
- MPI [12]: 100
- IC50 [13]: 0.079 µg/mL
- IC80 [13]: 0.224 µg/mL
- MPI [13]: 100
- IC50 [14]: 1.58 µg/mL
- IC80 [14]: 12.2 µg/mL
- MPI [14]: 96
- IC50 [15]: 0.307 µg/mL
- IC80 [15]: 1.01 µg/mL
- MPI [15]: 100
- IC50 [16]: 0.23 µg/mL
- IC80 [16]: 1.02 µg/mL
- MPI [16]: 100
- IC50 [17]: 0.279 µg/mL
- IC80 [17]: 1.01 µg/mL
- MPI [17]: 100
- IC50 [18]: 0.055 µg/mL
- IC80 [18]: 0.208 µg/mL
- MPI [18]: 100
- IC50 [19]: 0.211 µg/mL
- IC80 [19]: 1.35 µg/mL
- MPI [19]: 100
- IC50 [20]: 0.045 µg/mL
- IC80 [20]: 0.131 µg/mL
- MPI [20]: 100
- IC50 [21]: 0.185 µg/mL
- IC80 [21]: 0.748 µg/mL
- MPI [21]: 100
- IC50 [22]: 3.76 µg/mL
- IC80 [22]: 15.7 µg/mL
- MPI [22]: 93
- IC50 [23]: 0.105 µg/mL
- IC80 [23]: 0.374 µg/mL
- MPI [23]: 100
- IC50 [24]: 0.088 µg/mL
- IC80 [24]: 0.318 µg/mL
- MPI [24]: 100
- IC50 [25]: 1.07 µg/mL
- IC80 [25]: 5.4 µg/mL
- MPI [25]: 100
- IC50 [26]: 0.12 µg/mL
- IC80 [26]: 0.431 µg/mL
- MPI [26]: 100
- IC50 [27]: 0.124 µg/mL
- IC80 [27]: 0.421 µg/mL
- MPI [27]: 100
- IC50 [28]: 0.505 µg/mL
- IC80 [28]: 4.23 µg/mL
- MPI [28]: 97
- IC50 [29]: 0.044 µg/mL
- IC80 [29]: 0.163 µg/mL
- MPI [29]: 100
- IC50 [30]: 0.764 µg/mL
- IC80 [30]: 2.71 µg/mL
- MPI [30]: 100
- IC50 [31]: 0.022 µg/mL
- IC80 [31]: 0.088 µg/mL
- MPI [31]: 100
- IC50 [32]: 0.189 µg/mL
- IC80 [32]: 0.688 µg/mL
- MPI [32]: 100
- IC50 [33]: 0.055 µg/mL
- IC80 [33]: 0.191 µg/mL
- MPI [33]: 100
- IC50 [34]: 0.055 µg/mL
- IC80 [34]: 0.199 µg/mL
- MPI [34]: 100
- IC50 [35]: 0.314 µg/mL
- IC80 [35]: 1.11 µg/mL
- MPI [35]: 99
- IC50 [36]: 0.144 µg/mL
- IC80 [36]: 0.539 µg/mL
- MPI [36]: 100
- IC50 [37]: 0.071 µg/mL
- IC80 [37]: 0.239 µg/mL
- MPI [37]: 100
